The results in this text go back to the nanobody polyreactivity screen of Harvey et al. (2022).

A short description of this data set: yeast display, Sf9 membrane polyspecificity reagent, FACS + sequencing; frameworks hold sequencing errors. The gist of the method: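 Polyreactivity labels are assigned by the sorting gate from which each nanobody was recovered. The gates were low and high (top ~1%), set on anti-HA fluorescence for expression and streptavidin fluorescence for reagent binding. Before sorting, galactose-induced (36–48 hours) yeast display cells were stained for 1 hour at 4 °C with 10% biotinylated, detergent-solubilized Sf9 membrane reagent.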
For the sequence “QVQLQESGGGLVQAGGSLSLRCSASRNITRSSDLGWYHQAPGKEREFVASITSGGTTYYADSVKGRFTISRDNAKNTVYLEMNSLKPEDTAVYYCAVGDQADAEFGYWGQGTQVTVSS”, the “polyreactivity (PSR sort gate)” value is listed as “low polyreactivity”.
As for “QVQLQESGGGLVQAGGSMRLSCAASGYFSNYYSMGLYRQAPGKERELVAGIGTGTSTYYADSVKGRFTISRDNAKNTVYQQMNSLKPEDTAVYYCAAPLDTSSRIFDYWGQGTQVTVSS”, the “polyreactivity (PSR sort gate)” value is listed as “low polyreactivity”.
As to “QVQLQESGGGLVQAGGSMRLSCAASGYNTIEVTRAGFSRRRAKNANLLPLLITVVLPIKRIAQNTISRDNAKNTVYLQMNSLKPEDTAVYNCAANTIGTDLYEYWGQGTQATVSS”, the “polyreactivity (PSR sort gate)” value is “low polyreactivity”.
Under “QVQLQESGGGLVQAGGSMRLSCAPRGSIYELRPMGWNRQAPGKESELVAGISTGGSTNYADCVIGRFTISRDNAKYSVYLQMNSLKPEDSAVYYCAAASYGEGTYDYWGQGTQVTVRS” stands “high polyreactivity”.
Consider “QVQLQESGGGLVQAGGSPRLSCAASDNIFPDSVMCWYRQAPGNERELVATIGFGATTNYADSVKGRFTISRDNAKNTVYLQMNSLKTEYTAVYYCAADPLNFDYFCYWGQGTQVTVSS”, for which the “polyreactivity (PSR sort gate)” value is reported as “low polyreactivity”.
Under “QVQLQESGGGLVQAGGSQRLSCAASGYIFYFQYMGWYRKAPGKEREFVAAISDGANTNYADSVKGRFTISRDNAKNTEYLQLNSLKPEDTAVYYCAVYADENYYYIYWGQGTQVNVSS” stands “low polyreactivity”.
Regarding “QVQLQESGGGLVQAGGSQRLTCAASVYIFYFQYMGWYRQAPGKEREFVAAMSDGANTNYADSVKGRFTISRDNAKNTESLQMNSLKPEDTAGYYCAVYADENYYYIYGGQGTQVTVSS”, the “polyreactivity (PSR sort gate)” value was “low polyreactivity”.
“QVQLQESGGGLVQAGGVLRLSCAASGTISGPHVMGWYRQAPGKEREFVAAINDGANTYYADNVKGRFTISRDNAKNTVYLQMNILKPEDTAVYYCAAVFYGDIGHEYWGQGTQVTVSC”: the “polyreactivity (PSR sort gate)” value is recorded as “low polyreactivity”.
The entry for “QVQLQESGGGLVQAGRSQRLSCAASGYIFYFQYMGWYRQAPGKEREFVAAISDGANTNYADSVKGRFTISRDNAKNSEYLQMNSLKPEDTAVYYCAVYADENYYYIYWGQGTQVTVSS” is “low polyreactivity”; for “QVQLQESGGGLVQAGVSLRLSCAASGTIFTARFMAWYRQAPGKERELVATITDGGNTNHADSVKGRFSISRDNAKNTVSLQMNSLKPEYAAVYYCAAGEVDNDTLLFWGQGSQVTVSS” it is “low polyreactivity”; for “QVQLQESGGGLVQARGSLRLICAASGNISVTGFMGWYRQAPCKERELVASIGIGGTTYYADSVKGRFSISRDNAKNTVYLQMNSLKPEDTAVYYCAARYLYYAYSYWGQGTQVTVIS” it is “low polyreactivity”.
The entry for “QVQLQESGGGLVQARGSLRLSSAASGYISYLDFMGWYGQAPGKERELVAGITTGATTNYADSVKGRFTISRDNAKNIVYQQINSLKQEDTAVYYCARGTEVKSGISYRFYYWGQGTQVTVSS” is “low polyreactivity”.
“QVQLQESGGGLVQASGSLRLSCAASGNIFPDYVMGWYRLAPGKEREFVANITGGSTTNYADSVKGRFTIIRDNAKNTVYLQMNSLKAEDTAVYYCAVNFGTVVLYLYWGQGTQVTVSS”: the “polyreactivity (PSR sort gate)” value is “high polyreactivity”.
With “QVQLQESGGGLVQSGGSLRLSCAASGYISSWYPMGWYRHAPGKEREFVATIAPGATTYYADSVKGRFTISRDYAKNTVYLQMNSLKPEDTAVYYCAAGPENNDFYSYWGQGTQVTVSS”, the “polyreactivity (PSR sort gate)” value is on record as “low polyreactivity”.
The entry for “QVQLQESGGGLVQVGGSLRLTCAASGTIFIYGFLGWNRQAPGKERELVASINLGGITNYADSVKGRFTISRDNAKNTVYLQMISLKPEDTAVYYCAAYVVTGQNYGYWGQGTQVTVSS” is “low polyreactivity”; for “QVQLQESGGGMVQAGGSLRLSCAASGYISWADYMGWYRQAPGKERELVAGIGYGSTTYYADSVKGRFTISRDNAKNTAYLQMNSLKPEDTAVYYCAVGWYRVTAYKYWGQGTQVTVSS” it is “low polyreactivity”; for “QVQLQESGGGMVQAGGSQRLSCAASGYISWADYMGWYRKATGKERELVAGIGYGSTTYYADSVKGLFTISRDNANNTAYLQMNSLKPEDTAVYYCAVGWYRDTAYKYWGQGTQVTVSS” it is “low polyreactivity”.
Under “QVQLQESGGGPVLAGGSLRLSCAASGTIFVRLDMGWYRQAPGKEREFVATIGSGSSTYYADSVKGSFTISRDNVKNPVYLQMNSLKPEDTAVYYCAVSAAEQSRHYYWDQGTQVTVSS” stands “low polyreactivity”; under “QVQLQESGGGQVQAGGSLRLSCAASGTIFLYAFMGWYRQAPGKERELVAAIDVGTTTNYADSVKGRFTISRDNAKNTVYLQMNSLKPEDTAVYYCAAPYVSWDYRYYYWGQGTQVTVSS”, “low polyreactivity”; under “QVQLQESGGLVQAGGLRLSSAASGSVSYQEAMGWYRQAPGKERELVATISFGANTNYADSVKGRFTISRDNAKNTVYLQMNSLKPEDTAVYYCAAESLFDDYYGYWGQGTQVTVSS”, “low polyreactivity”.
The entry for “QVQLQESGGLVQAGGMRLSCEASGSVSYQEAMGWYRQAPGKERELVATISFGANTNYADIVKGRFTISRDNAKNTVYLQMNSLKPEDTAVYYCAAESLFDDYYGYWGQGTQVTVSS” is “low polyreactivity”; for “QVQLQESGGRLVQAGVSLRLSCAASGSIYDDTYMGWYRQAPGKERELVATIDSGSTTNYADSVKGRITISRDNAKNTVYLQMNSLKPEDTAVYYCAAADSHIDYFDYWGQGTQVTVSS” it is “low polyreactivity”; for “QVQLQESGGRMVQAGGSLRLSCAASGYISWADYKGWYRQAPGKERELVAGIGYGSTTYYADSVKGRFTISRDNAKNTSYLQMNSLKPEDTAVYYCAVGWYRDSAYKYWGQGTQVTVSS” it is “low polyreactivity”.
As for “QVQLQESGGVQAGGSLRLSCAASGYISRSDVKGWYRQAPGKERELVATINNGTITYYADSVKGRFTISRDNAKNTVYLQMNSLKPEDTAVHYCAVVQSDTDSLYYWGQGTQVTVSS”, the “polyreactivity (PSR sort gate)” value was “low polyreactivity”.
For “QVQLQESGGVQVQAGGSLRLSCAASGYISTHYFMGWYRQAPGKDREFVAGISNGSITNYADSVKGRFTISRDNARNTVYLQMNSLKPEDTAVYYGAAYEWTYVRFGYWGQGTLVTVSS”, the “polyreactivity (PSR sort gate)” value is “high polyreactivity”.
Turning to “QVQLQESGRGLVQAGGSLRLSCAASGYISYFVGMGWYRQAPGKEREFVASIADGSNTYYADSVKGRFTISRDNAKNTVCLQRNSLKPEVTAVYYCAVEDSWTYRFDYWGEGTQVTVSS”, the “polyreactivity (PSR sort gate)” value is “high polyreactivity”.
Under “QVQLQESGRRPGAAGGSPRMSCAASGNIFWVAVMGRYRQAPGKERELVASIGFGCTTYYADSVKCRFTISRDNAKNTVFLQLISLKPEDTAVYYCAAPLYDWGELDDWGQGTQVPVSS” stands “low polyreactivity”.
Take “QVQLQESGRRPGAAGGSPRMSCAASGNIFWVAVMGRYRQAPGKERELVASIGFGCTTYYADSVKCRFTISRDNAKNTVYLQMISLQPEDTAVYYCAAPHYDWGELDYWGQGTQVPVSS”: the “polyreactivity (PSR sort gate)” value is given as “low polyreactivity”.
Consider “QVQLQESRGGLVQEGGSLRLSSAASGNISPPAHMGWYRPAPGKQRELVASIGNGRTTNYADSVKGRFTISRHNANNTVYLQMYSLKPDETAVYYCSAVRYEYNPYDYWGQGTQVTVSS”, for which the “polyreactivity (PSR sort gate)” value is on record as “low polyreactivity”.
The entry for “QVQLQESRGGQVQEGGSLRLSCAASGNISPPADMGWYRQAPGKERELVASIGTGGTTNYADSVKGRFTISRDNAKNTVYLQMKSLKPDDTAVYYCAAVRFEYNPYDYWGQGTQVTVSS” is “low polyreactivity”.
